Consider 6 substances from article PMC10499894.

“And” between values parts separate entries of the source, which are not always exact repeats. Equal entries are not always repeated.

For test [1], the target named is TadD, native sequence, tag not given (P. aeruginosa PAO1). In words: pull-down; cysteine mutants of RcpA and TadD co-expressed in E. coli, single strep tag pulldown; RcpA-TadD particles counted on five negative stain EM micrographs per mutant (Laplacian-of-Gaussian blob detection), SDS-PAGE.
Test [2] addresses RcpA, endogenous in P. aeruginosa PAO1 (P. aeruginosa PAO1 (endogenous)) (UniProt Q9HW96). The test can be described thus: pull-down; P. aeruginosa PAO1 with chromosomal tadD_(strep), native expression levels; membranes extracted with DDM; Strep-Tactin Sepharose; eluate seen by anti-strep Western blot and negative stain EM 2D class averages. Background: Immunoblotting shows a protein as a band on a membrane.

The target of test [3] is TadD D139C (P. aeruginosa PAO1). In words: pull-down; cysteine mutants of RcpA and TadD co-expressed in E. coli, single strep tag pulldown; RcpA-TadD particles counted on five negative stain EM micrographs per mutant (Laplacian-of-Gaussian blob detection), SDS-PAGE.
In test [4] the target is RcpA_(strep), C-terminally strep-tagged RcpA (P. aeruginosa PAO1) (UniProt Q9HW96). In words: cryo-EM structure; RcpA_(strep)-TadD_(FLAG) complex co-expressed in E. coli, double pulldown (StrepTrap, ANTI-FLAG M2), 0.06% DDM; graphene oxide support and tilted collection; C13 map at 2.7 Å, focussed TadD map; on holey carbon grids TadD was stripped off.
The target in test [5] is _(strep)RcpA, N-terminally strep-tagged RcpA (P. aeruginosa PAO1) (UniProt Q9HW96). The test can be described thus: pull-down; RcpA constructs with the strep tag at the N-terminus co-expressed with TadD in E. coli; single strep tag pulldown; SDS-PAGE, Western blot and negative stain EM 2D class averages.

Substance “RcpA L414C (from UniProt Q9HW96 1-416) (natural protein)” displayed a RcpA-TadD particles relative to native levels in test [1] of 9%.
On to “RcpA S415C (from UniProt Q9HW96 1-416) (natural protein)”, for which, in test [1], the RcpA-TadD complex relative to native levels stood at 10% and the RcpA-TadD particles relative to native levels was 14%.
On to “RcpA, endogenous in P. aeruginosa PAO1 (from UniProt Q9HW96 1-416) (natural protein)”, for which the stoichiometry N (as a rule, the number of molecules, sites or subunits per partner or assembly) in test [2] was 13 and 14.
Take “RcpA, native sequence, in the cysteine cross-linking assay (tag not stated) (from UniProt Q9HW96 1-416) (natural protein)”: the RcpA-TadD particles relative to native TadD in test [3] is 2%.
For “RcpA_(strep), C-terminally strep-tagged RcpA (from UniProt Q9HW96 1-416) (natural protein)”, the stoichiometry N in test [4] is 13 and 14.
Take “_(strep)RcpA, N-terminally strep-tagged RcpA (from UniProt Q9HW96 1-416) (natural protein)”: the stoichiometry N in test [5] was 13 and 14.
